Measured values as given in PMC10843684 (Molecular cell, 2023).

T1: MAEA (U-box subunit of the CTLH E3 catalytic module) (human, UniProt Q7L5Y9 1-396)
T1 sequence: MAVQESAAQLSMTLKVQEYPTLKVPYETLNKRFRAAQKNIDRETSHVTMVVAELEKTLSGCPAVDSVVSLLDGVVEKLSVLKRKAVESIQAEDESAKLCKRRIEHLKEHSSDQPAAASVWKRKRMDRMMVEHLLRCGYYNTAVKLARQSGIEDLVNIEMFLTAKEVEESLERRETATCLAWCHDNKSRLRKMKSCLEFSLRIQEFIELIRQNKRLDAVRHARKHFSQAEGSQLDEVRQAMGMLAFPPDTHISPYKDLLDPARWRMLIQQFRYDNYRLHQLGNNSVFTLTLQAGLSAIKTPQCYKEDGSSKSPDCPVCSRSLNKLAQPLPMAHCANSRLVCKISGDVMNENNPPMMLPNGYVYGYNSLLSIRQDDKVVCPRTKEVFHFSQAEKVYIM

T2: RMND5A (RING subunit of the CTLH E3 catalytic module) (human, UniProt Q9H871 1-391)
T2 sequence: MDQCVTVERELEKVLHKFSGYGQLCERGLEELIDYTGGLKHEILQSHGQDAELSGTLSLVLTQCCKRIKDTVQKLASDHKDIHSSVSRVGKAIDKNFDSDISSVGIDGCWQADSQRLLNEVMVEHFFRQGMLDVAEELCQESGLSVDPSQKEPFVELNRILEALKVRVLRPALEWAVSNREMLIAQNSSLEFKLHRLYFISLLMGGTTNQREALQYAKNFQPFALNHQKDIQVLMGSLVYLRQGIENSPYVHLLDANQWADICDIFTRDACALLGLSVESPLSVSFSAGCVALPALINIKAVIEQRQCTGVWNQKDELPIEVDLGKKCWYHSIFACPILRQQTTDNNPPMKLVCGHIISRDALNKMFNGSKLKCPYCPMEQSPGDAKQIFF


Tests used:
Assay in all cases: cryo-EM structure
[1] = biological target: Chelator-GID^SR4 (S. cerevisiae, UniProt P53076 1-958; P40208 1-455; P40547 1-921; P38263 1-362; Q12508 1-421; P40492 …)
[2] = biological target: T1, MAEA (U-box subunit of the CTLH E3 …)
[3] = biological target: T2, RMND5A (RING subunit of the CTLH E3 …)

binding result [2]	binding result [3]	Binder	binding result [1]
–	–	Fbp1-6xHis (fructose-1,6-bisphosphatase) (natural protein, S. cerevisiae) MPTLVNGPRRDSTEGFDTDIITLPRFIIEHQKQFKNATGDFTLVLNALQFAFKFVSHTIRRAELVNLVGLAGASNFTGDQQKKLDVLGDEIFINAMRASGIIKVLVSEEQEDLIVFPTNTGSYAVCCDPIDGSSNLDAGVSVGTIASIFRLLPDSSGTINDVLRCGKEMVAACYAMYGSSTHLVLTLGDGVDGFTLDTNLGEFILTHPNLRIPPQKAIYSINEGNTLYWNETIRTFIEKVKQPQADNNNKPFSARYVGSMVADVHRTFLYGGLFAYPCDKKSPNGKLRLLYEAFPMAFLMEQAGGKAVNDRGERILDLVPSHIHDKSSIWLGSSGEIDKFLDHIGKSQ	binds
binds	binds	UBE2H C87K, insect cell-expressed and fully phosphorylated with CK2 (the E2 chain of the UBE2H~ubiquitin mimic) (enzyme, human, UniProt P62256 1-183, looked up, phosphoserines 164, 165, 166, 168, 169, 171 and 174; K87 isopeptide-bonded to ubiquitin) MSSPSPGKRRMDTDVVKLIESKHEVTILGGLNEFVVKFYGPQGTPYEGGVWKVRVDLPDKYPFKSPSIGFMNKIFHPNIDEASGTVKLDVINQTWTALYDLTNIFESFLPQLLAYPNPIDPLNGDAAAMYLHRPEEYKQKIKEYIQKYATEEALKEQEEGTGDSSSESSMSDFSEDEAQDMEL	–
